Assay: soluble on expression in E. coli; label from the status in PepcDB or PDB records

Sequence | soluble on expression in E. coli
MVINQNEAHAIQRIDSDEEPTVSVVDVVATVATPHFDEPLKRKWRLKCAEYGTFMASLLDTDFAEHVTAHQVRCDGVRFKVKLRVEEAKGRSPRFEILAMSPEDSSGVQTLL | not soluble
MMQIDSIEIGGKVYQFFKSDLGNAPLLFIKGSKGYAMCGYLNMETSNKVGDIAVRVMGVKTLDDMLSAKVVEASQEAQKVGINPGDVLRNVIDKL | soluble
MTSLVVPGLDTLRQWLDDLGMSFFECDNCQALHLPHMQNFDGVFDAKIDLIDNTILFSAMAEVRPSAVLPLAADLSAINASSLTVKAFLDMQDDNLPKLVVCQSLSVMQGVTYEQFAWFVRQSEEQISMVILEANAHQLLLPTDDEGQNNVTENYFLH | soluble
MSTLADQALHNNNVGPIIRAGDLVEPVIETAEIDNPGKEITVEDRRAYVRIAAEGELILTRKTLEEQLGRPFNMQELEINLASFAGQIQADEDQIRFYFDKTM | soluble
GHMASVTRAVFGELPSGGGTVEKFQLQSDLLRVDIISWGCTITALEVKDRQGRASDVVLGFAELEGYLQKQPYFGAVIGRVANRIAKGTFKVDGKEYHLAINKEPNSLHGGVRGFDKVLWTPRVLSNGVQFSRISPDGEEGYPGELKVWVTYTLDGGELIVNYRAQASQATPVNLTNHSYFNLAGQASPNINDHEVTIEADTYLPVDETLIPTGEVAPVQGTAFDLRKPVELGKHLQDFHLNGFDHNFCLKGSKEKHFCARVHHAASGRVLEVYTTQPGVQFYTGNFLDGTLKGKNGAVYPKHSGFCLETQNWPDAVNQPRFPPVLLRPGEEYDHTTWFKFSVA | soluble
MAVTQSPRNKVAVTGGKVTLSCNQTNNHNNMYWYRQDTGHGLRLIHYSYGAGSTEKGDIPDGYKASRPSQENFSLILELATPSQTSVYFCASGDLGQTNERLFFGHGTKLSVLGSADDAKKDAAKKDGQVRQSPQSLTVWEGETAILNCSYENSAFDYFPWYQQFPGEGPALLISILSVSDKKEDGRFTIFFNKREKKLSLHIADSQPGDSATYFCAAIDTNAYKVIFGKGTHLHVLP | soluble
MSLAKYFDPHIHMVSRTTDDYQNMAAAGITGVIEPAFWQGQARTSVGSFIDYFDTLLGWERFRASMFGIHHFCTIGLNPKEANDLSVANEVLEILPRYLVKDGVVAVGEIGYDDITPEEDRFLAAQLELARQFNLPVLVHTPHRDKIGGTKRTLAVIREVGIAENLVIIDHLNELTLPLVLDSDCWRGHSIYPNTKMSEQRMVALLQEYGSEKMVVNSAADWGISDPLKVPKTGQAMLAAGFSEAQVEQVLFHNPVDFFAQSGQLDKQLVSTEGHHHHHH | not soluble
MGSDKIHHHHHHLNQPLTPQPIKTMTDKRQAILDTALALFVSQGFHGTSTASIAKQAGVATGTLFHHFPSKEALMESLFLTIKQQFADTLLLNTHKGSDLKLNALQLWQSAIDWSLDNPVKQLFFQQYSMSPMIAAKVRDQAMNSILGFISELIKQGQMEGLIAHYPLELMLENCHGQYLAATRFFIDNPHLGTNTRYRDASFELFWKAMQAD | not soluble
MGIHKPKFYAVRAGRDKGVFSSWEECRKAIYGFSGAVYRSFPTLEEAQAWFKGETLSDPLKAEDDSLRDDRTEYDVYTDGSYVNGQYAWAYAFVKDGKVHYEDADVGKNPAAATMRNVAGEIAAALYAVKKASQLGVKIRILHDYAGIAFWATGEWKAKNEFTQAYAKLMNQYRGIYSFEKVKAHSGNEFNDYVDMKAKSALGIRDLEHHHHHH | not soluble
MGSDKIHHHHHHMHHVKTGALSISRLEYGADVIIEPDHLDNFYLIQIPTQGYAEIEFGSQKFISYSQVASLISPQQSLRMCWHANSPQLILKVSKDDFTYHCRQHIADSENNLLIFDPKLDFSTQGGAYFLQLVRTLMDALACEQHPLHHPLAFKQFESNLFNALIYGQPNNALHKLDHYKEKTVSPYFVKRTEAYIKEHLHEPLNVEILAEHAGVSVRTLFTGFKNYLGTTPMSYLKELRFEQAHLELMHNENLSVTDVAFKWGFTHLGRFSQEYKRRYGELPSSTRRSGQSEGSGLITSIFS | not soluble
MPSLSEFLRKRRARQRRLQAVPSNNKKKSNNNNIMSSTSSGKSRRAASLSSINNFEHLASVEKAGWLNKWTNYLKGYRQRWFVLDSNATLSYYRNPSEVGHTCRGSINLQEARVHTDKTTSCIVISGQSQTFHVKPQNEMDRQQWTNSLEYMRHKAITRAESEEDEDAQMAKTDSNRSDALILANRQMSGKLCDLRTAANMMNKQGDELMRALNGTVETDKNSLAERADLLKMTTSAVLQAAEEFVELSEQSAKRLNKIVAVEQKEKALLQEQLEALAKQHSSLERAASKCARGAAPVSVYSDQEDDEFHDAEEDLAMPCSNSNGPPATAGVHLTPTKRHIGAGDPSSSTCSDSGAVVVVGAHKGGRQRRTTVPERPNLPINLWSIMKNCIGKELSKIPMPVNFSEPISVLQRVTEDLEYANLLETGAKLSTLEQMCYVAAYAASNYSTTCHRTNKPFNPLLGETFEFDRMDDLGWRSVTEQVSHHPPAAAHHAEGNGWTMYQDFTMTSRFRGKYLSVIPIGFTHVVFPATKSHFSYRKITTTVHNIIVGKLWIDNHGDMEITNHETNEKCLLKFVPYSYFSREQPRKVYGIVRDAEGIPKYVVQGTWDKSIDMLKVSSWNGNHEKPKLEVDETSLKRIWTANPLPKNAEKMHNFTKLAIELNEPEEGVAPTDSRLRPDQRLMENGEWDEANRKKLEIEEKQRVVRRRREAEKELAMKKGDKYEEYEPTWFVRVQDESNGALIHQFKGGYWEAKEQQNWEKCPDIF | not soluble
MKVLAFDTSSKALSLAILEDKQVLAETTINIKKNHSITLMPAIDFLMASLDWTPKDLDRIVVAEGPGSYTGLRIAVATAKTLAHTLNIELVGMSSLLALVPHQQEGLFVPLMDARRNNVYAGFYENAKPVMAEAHLSFEEVLEKVKGTSQVTFVGEVGPFVEQIQKHLPRTDYKETLPNAANLALLAWDKEADSLHDFVPNYLKRVEAEENWLKNHTESGESYIKRL | not soluble
MGSDKIHHHHHHMARLSEGWSKEPFFLFFHPPKSPTKKENIKMNYRETLQAVDTEKALSVIGINSTLQGAYVKFNCPECEQQALIKAYGEKKNLWYCPKCKKSGHIISLTMTKKNIQWEEAKDLLLKARNGVKKITEEFNLKYDLQYNDFIKDKGLSEDICKFLEIGTPKGKTMLSGCVAFLVRDEVGMRVAYFGIKMKDEKHVFHKSFNPEQYLYGFQNLDFAYDVYFTTDLFECIKHIENGFQCVCNFGLPYISNEQMELLEKAERVTFSIRDELVKPFALQLTQRQKFYRFIK | not soluble
MHIEFRHLRTIKAIHDCGGLARAADQLNITQSALSHQIKGLEDQAGVELFVRRSKPMKLSAAGMRLLRLAEQILPQVEAMQAEFSSLRDGRSGRMHIAIECHACFEWLFPVLEAFRKNWPDVDVDIRPGLAFDALPALQKEEVDLVVSSDPEEIAGVEFVELFDYNAVFVAASTHPLAAKPWVEAEDFRGETLITYPVERTRLDVFSQLLIPARVEPAQVRQVELTAVILLLVASNRGVSVLPDWVVREVKYSSDYVTRPLTETGITRRLYAAVRSEDLEKPFVQELVTLARSEARKLQSR | not soluble
MISKDEILEIFDKYNKDEITIATLGSHTSLHILKGAKLEGFSTVCITMKGRDVPYKRFKVADKFIYVDNFSDIKNEEIQEKLRELNSIVVPHGSFIAYCGLDNVENSFLVPMFGNRRILRWESERSLEGKLLREAGLRVPKKYESPEDIDGTVIVKFPGARGGRGYFIASSTEEFYKKAEDLKKRGILTDEDIANAHIEEYVVGTNFCIHYFYSPLKDEVELLGMDKRYESNIDGLVRIPAKDQLEMNINPSYVITGNIPVVIRESLLPQVFEMGDKLVAKAKELVPPGMIGPFCLQSLCNENLELVVFEMSARVDGGTNSFMNGGPYSFLYNGEPLSMGQRIAREIKMALQLDMIDKIIS | soluble
MAQGNPLTPEEIELLHAGDEENDNTDTLMVIRVPNDGSSATAISIPRDTYVHDENVGNLKINGVYRAYKNRKASELVNSGESDQKHIDELSKEAGRKALISSISDLTGVTVDHYAEVGLLGFVLLTNAVGGVDVCLNNDVYDEFSGADFKAGQQTLRDGQALAFVRQRHGLPRGDLDRIVRQQAFMASLVAKVLSSGTLTNPSKLSDLGEAVSRSVVIDKNWDVMSFANQLQNLAGGNVKFNTIPVTSIDGVGDYGESVVTVDKNQVHQFFDRLLNGNNGEETPTSDSEAPAENPHTSTTIDVLNATSTTGLASQVAGHLSAKHYTIGNIGNALEGMYHESQIVAADPNNEAVKAIAAELGGLPITQRNDLEHHHHHH | soluble
TEKKYIVALDQGTTSSRAVVMDHDANIISVSQREFEQIYPKPGWVEHDPMEIWATQSSTLVEVLAKADISSDQIAAIGITNQRETTIVWEKETGKPIYNAIVWQCRRTAEICEHLKRDGLEDYIRSNTGLVIDPYFSGTKVKWILDHVEGSRERARRGELLFGTVDTWLIWKMTQGRVHVTDYTNASRTMLFNIHTLDWDDKMLEVLDIPREMLPEVRRSSEVYGQTNIDGKGGTRIPISGIAGDQQAALFGQLCVKEGMAKNTYGTGCFMLMNTGEKAVKSENGLLTTIACGPTGEVNYALEGAVFMAGASIQWLRDEMKLINDAYDSEYFATKVQNTNGVYVVPAFTGLGAPYWDPYARGAIFGLTRGVNANHIIRATLESIAYQTRDVLEAMQADSGIRLHALRVDGGAVANNFLMQFQSDILGTRVERPEVREVTALGAAYLAGLAVGFWQNLDELQEKAVIEREFRPGIETTERNYRYAGWKKAVKRAMAWEEHDQLYTRASQPELAPEDPEDLEHHHHHH | soluble
MSLKRLIMATMVTAILASSTVWAADNAPVAAQQQTQQVQQTQKTAAAAERISEQGLYAMRDVQVARLALFHGDPEKAKELTNEASALLSDDSTEWAKFAKPGKKTNLNDDQYIVINASVGISESYVATPEKEAAIKIANEKMAKGDKKGAMEELRLAGVGVMENQYLMPLKQTRNALADAQKLLDKKQYYEANLALKGAEDGIIVDSEALFVNEGHHHHHH | soluble
MGSDKIHHHHHHMMYPMPSWVYDSVVYQIFPDRFFIGKGKTVEDKKDLYLKRGGVIEKWGVPPRKLPGAQHVKIFYGGDLWGIAEKVDYFEELGINVLYLTPIFLSDTNHKYDTIDYFRVDPQFGGKRAFLHLLRVLHERSMKLILDGVFNHVGSQHPWFKKAKKNDPEYVNRFFLYKDRHRSWFDVGSLPELNVEVEEVKEYILKVVEHYLKLGIDGWRLDCGHDLGPTVNLWINMKVKEFSAEKYLVSEIWTYPAGWDMVDGLMNYNFRNLVLSYVNGETDSIGFHLERAYRETKNIFGCWNMLDSHDTPRLATMVPDRDLRKLAVVLQFTYPGVPLVYYGTEIGLTGGEDPECRATMEWNREKWDVDLFEFYKKMIRLRRTDPGLRFGEFVLLNDSPLAFLRKAPHPLQNTIVVVNPGEEKVLVLSIPDGKIMNTTPLVDVFSGERFHVDGGVVKLPLLARSFRILKPEDLRVGKYRLYKRV | not soluble
SLPSYVVPEEPLLSAPTVAELTQAVNGAVVSGDVALREREVMGVLAAGMTADHVLERLTDGMAVITPGDRSDVVLAVASAHAAEGFPSLSCIVLNGGFQLHPAIAALVSGLRLRLPVIATALGTYDTASAAASARGLVTATSQRKIDTALELMDRHVDVAGLLAQLTI | soluble
MIVQKELVAIYDYEVPVPEDPFSFRLEIHKCSELFTGSVYRLERFRLRPTFHQRDREDADPLINDALIYIRDECIDERKLRGESPETVIAIFNRELQNIFNQEIE | soluble
MSHLRIPANWKVKRSTPFFTKENVPAALLSHHNTAAGVFGQLCVMEGTVTYYGFANETATEPEVKVVINAGQFATSPPQYWHRVELSDDARFNIHFWVEEDHQGEEMYQQKKALEHHHHHH | soluble
